The assay deals with enhanced GFP (EGFP).

Consider “E. coli dihydrofolate reductase (eDHFR) (from UniProt P0ABQ4 1-159) (enzyme)”, for which the t1/2 of the normalized PCC increase between mCherry-eDHFR and EGFP-mito over time in live HeLa cells with 24 uM cRGT was determined as 7.26 min.

The values above are taken from article PMC10039045.
